Assay results taken from the supplement of paper PMC9170038.

Each sequence was assayed on MS2 coat protein (assay: apparent KD of MS2 coat protein; higher = weaker reporter binding). Conditions: Eterna round: R107; input ligand: arginine 13.2 mM.
Summary of the method: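 For every design, apparent KD is the median of normalised binding-curve fits from its clusters. The RNA switches were transcribed on-chip from Illumina sequencing clusters and titrated with SNAP-549-labelled MS2 coat protein (twofold steps, 0.7 or 1.5 nM to 3 µM; 0.8–1.5 h to 10–20 min per step). Titrations used 100 mM Tris-HCl pH 7.5, 80 mM KCl, 4 mM MgCl2, without or with constant ligand.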

Sequence	apparent KD of MS2 coat protein [nM]
AUACAUGAGGAUCACCCAUGUCAUACAGAAGGAGCGUCAUAUUAGACAGGUAGGUCGCUGUAAUUUUUAUUAUUCUUUAUGUAUU [JR_Nu_ExcArginiA_Sub026]	21.9
UGAAAGUAGGGAAGGAGCGCUACAACAUGAGGAUCACCCAUGUUAUGAGGAUCACCCGUGUGGCAGGUAGGUCGCCCAAAACAUG [#13 Same State - Arginine B]	40.6
CUUGAGACAUGAGGAUCACCCAUGUCCGAAGGAGCGUGCGAAAGCACAGGUAGGUCGCGGACGUGAGGAUCUCCCAUGUGAGCGA [#25 Exclusion - Arginine A]	14.3
GGCACAUAGUCGGCCGCCACUAGAAUAAGAAGGGAAAACAUGAGGAUCACCCAUGUAAAAGGGACUAGGACCGGGACUAUGUGCC [Shrew]	14.5
UAUAUAUAUAUUGAUACCAGCAGAGAAAACGUAUAUCCUAACAUGAGGAUCACCCAUGUAUGCCCUUGGCAGCGAUAUAUAUAUA [8.B]	21.2
AGCUCGCAUCCUCUAGCGUCAAAGACGCGUCGAGGACCGGUACGGCCGCCACUCGACUUGAGGAUCACCCAAGUCUAAGCGAGCA [TrypAX 11 #SwitchBubble #AlternativeMS2 #MS2Late #CuTurnoff]	54.8
CAUGGCUGUGCGGCCGCCACUGGCUCAUCCUGCAUUACAUGAGGAUCACCCAUGUUGCGGCCUCCCAGGACCGGGCAUAGCCUGA [Abediat]	39.5
ACAUGAGUGGAUAAUAAAUAAGAAGGCGAAGGAGCGUGAAGAAUCACAGGUAGGUCGCGCAAAAUACAUGAGGAUCACCCAUGUU [JR_Nu_ExcArginiA_Sub031]	22.5
AGGAAAACAUGAGCAAAGCUCAUGUGCGAAGGAGCGGCGGAAACGCCAGGUAGGUCGCGCACAUGAGCAUCAGCCAUGUGUAUCA [Omei Arginine B SS A v4]	39.5
AAACAUGAGGAUCACCCAUGUUCUCGUGUCCGAGGACCGGUACGGCCGCCACUCGGUUCUCGCGAGGAUGGUCAAAGACUAUCCA [Omei Trp A SS B v6]	22.9
AUCGUACCUGAUGAUACCAGCAUGUGAUCAUAACAUGAGGAUCACCCAUGUAAUCAGUGAUGCCCUUGGCAGCAUAGUCGAUACA [Same State - Theophylline B (Freestyle 6)]	80.8
AGAGUCAGACAAAAGUCUGGCUCAGCCGAAGGAGCGUCCGAAAGGACAGGUAGGUCGCGGUUCCAUGAGGAUCACCCAUGGUCCU [ArgAS 28 #OpenEnded #AlternativeMS2]	47.1
AUACAUGAGGAUCACCCAUGUAUAGAUGAAGGAGCGACCAGAGGGUCAGGUAGGUCGCAUCACAUGAGGAUCACCCAUGUACUUA [DOUBLE!!! :-D #9]	27.1
CGAUCUUUCGAAAGAAGGAUCGAGUCUGAUACCAGAGACGAAAGUCUCCCUUGGCAGCAGUGCCAACAUGAGGAUCACCCAUGUA [Theophylline A 9]	20.7
UGGCGAGAAGGAAGGAGCGUCAGCUGAGUCACAUGAGGAUCACCCAUGUAGGACAUGGUGUGACAGGUAGGUCGCCUUCUGCCCU [SS-ArgB18]	16.9
ACGUAAUGCAGAAGGAGCGUCAACCUCUUACAUGAGGAUCACCCAUGUUACAUGGUUGUAUGACAGGUAGGUCGCUGAAGUACGA [JR_ExcArginiB_Sub001]	31.9
ACAUGAGGAUGGGAUACCAGAUACAUGAGGAUCACCCAUACAUGAGGAUCACCCAUGUCCGUCCCUUGGCAGCCCAACAUGAGGA [Exclusion Theophylline B]	77.4
GAGCUGAUGUAGAGCGAAUAUACGAGAGAUACCAGUACAGAAAUGUACCCUUGGCAGCUCAACUUUACAUGAGGAUCACCCAUGU [Ex Theophylline A 22]	14.4
UAUAUAGUGAUGGAUACCAGCAGAGAAAACGUUUAUCCUAACAUGAGGAUCACCCAUGUAUGCCCUUGGCAGCUGUUGUUAUAUA [8.L]	20.8

Sequence	apparent KD of MS2 coat protein [nM]
ACAUUUAACUGAAGGAGCGUGAUAUUUACAUGAGGAUCACCCAUGUCUAUCAUGAGAUAUUCACAGGUAGGUCGCAGACUAAUGA [JR_ExcArginiB_Sub005]	38.9
GUCCUCAUGACGGCCGCCACUACACAUGAGGAUCACCCAUGUAAUGAUCCCUUAAAUGAUAAUAGUAGGACCGGGUCACUGUAAG [Same State Typptophan B GF12]	119
ACAUCCAGGUUAAUCGUGGGCAUGGUCGAUACCAGUAUUUUAAUCUACCCUUGGCAGCGACAUGAGGAUCACCCAUGUGCGAUGA [XTheo A #13]	20.1
GGUUACUCUACGGCCGCCACUGUAAUGUAAAGAUACCUGUACAUGACAUGAGGAUCACCCAUGUGCAGGACCGGGUAGUGUAACC [Tryptophan B 19]	50.6
GCUGCUUUGGGAAGGAGCGCUGUGGUAGUGUGGCGGACAUGAGGAUCACCCAUGUGCCUGCAGCAGGUAGGUCGCUUAGGGCAGC [EAP NP+V+V2 #16]	37.6
GGUCGCCUACAUGGGUAGGCGAUUUUGGAAGGAGCGAGCGAGAGCUCAGGUAGGUCGCCAGCACAUGAGGAUCACCCAUGUUUUU [SSArg-A #25 Weakened 1st state]	20.8
AAAAUAAAUAAAACACGUAACAUGAAGGAUACCAGACCGGAAACGGUCCCUUGGCAGCCUCUACAUGAGGAUCACCCAUGUCGUG [Mat - Same State Theophlline A - Mod of Eli - D18]	110
AGUAAUCUAACAGAUACCAGACGGUAUAUAACAUGAGGAUCACCCAUGUCUUGGGUGUACGUCCCUUGGCAGCUGAAAAUGAUAA [JR_SSTheophyB_Sub001]	157
AUACAUGAGGAUCACCCAUGUUAUAGUGAAGGAGCGACAUUUAGGUCAGGUAGGUCGCACUAUUGAAUUAUUAUCCUUAUUUCUU [JR_ExcArginiA_Sub020]	16.1
CAUACUUUAUCCUAUGAGCCUAUUUGUGAUACCAGCAUCUAAAUUUGCCCUUGGCAGCACUUACAUGAGGAUCACCCAUGUUUUA [JR_NU_SSTheophyA_Sub028]	22
CGCCACAUGAGGAUCACCCAUGUCUUGGCGCGAGGACCGGUACGGCCGCCACUCGCGUUUCAGUGAGCGCAUGCGUCCUUGGUAU [Exclusion Tryp A GF10]	16.8
AAUACCGGUCCUCGAAGGUGAUCCUCAUAACGAGGACCGGUACGGCCGCCACUCGAUAACAUGAGGAUCACCCAUGUAAUAAUAA [|T'-M'-Trp-Ms2|_Design6]	56.1
UUCAAAGGGAACGGUGCUGGUGACAGAGAUACCAGCGCGGUAACGCGCCCUUGGCAGCUCAGAACAUGAGGAUCACCCAUGUAAU [Exclusion Theophylline A GF23]	15.9
AGUGUUGUAACUGAUACCAGACCUUUGCUUAUACAUGAGGAUCACCCAUGUAAAAUGGCGGUCCCUUGGCAGCAGAGAAGACGCA [#10 Same State - Theophylline B]	41.5
GGGCGCUAUCCCGCGAGGGAUAGCGUUCUUCGAGGACCGGUACGGCCGCCACUCGAACGAGUGGUGACAUGAGGAUCACCCAUGU [Paa]	35.6
UGUAUGGACUGAAGGAGCGCCUCAAAACAUGAGGAUCACCCAUGUGGACAAUAAGUCCUUGGGCAGGUAGGUCGCAGUCCAUACU [ArgBX 6 #StaticStem #MS2Late]	81.4
AGUUAAAUAUGUUAAUAACUAUUUACUGAAGGAGCGUGUUUUGACACAGGUAGGUCGCAGUGACAUGAGGAUCACCCAUGUCGUA [#08 Same State - Arginine A]	20.3
CUAUGGAUAAGAAGGAGCGUCGAAAAUGGGUAAACAUGAGGAUCACCCAUGUAAAGGGAACGACAGGUAGGUCGCUUAUUUAUAG [AstromonsSSArgB#7]	107
UAUAUAUAGGGAAGGAGCGGGAACAUGAGGAUCACCCAUGUACAUGAGGAUCACCCAUGUACCCAGGUAGGUCGCCCAUAUAUAU [Exclusion - Arginine B]	90.7

Same assay, conditions: Eterna round: R107; input ligand: none

Sequence	apparent KD of MS2 coat protein [nM]
AUACAUGAGGAUCACCCAUGUCAUACAGAAGGAGCGUCAUAUUAGACAGGUAGGUCGCUGUAAUUUUUAUUAUUCUUUAUGUAUU [JR_Nu_ExcArginiA_Sub026]	26
